The values below come from patent publication US20200062856A1 (XDCEXPLORER SHANGHAI, published 2020).

In assay [1] the target is human TPBG protein, full-length, on the cell surface (human) (UniProt Q13641). The assay can be described thus: FACS, HEK293 clone 293F-hTPBG 4A8.
The target of assay [2] is T1, human TPBG-hFc protein (human, UniProt Q13641 32-355).
T1 construct: range 32-355; Expressed in HEK293 cells, purified on protein A; also called immunogen A; hFc tagged TPBG protein; not shown: human IgG Fc fragment of the pCpC vector
T1 sequence (looked up): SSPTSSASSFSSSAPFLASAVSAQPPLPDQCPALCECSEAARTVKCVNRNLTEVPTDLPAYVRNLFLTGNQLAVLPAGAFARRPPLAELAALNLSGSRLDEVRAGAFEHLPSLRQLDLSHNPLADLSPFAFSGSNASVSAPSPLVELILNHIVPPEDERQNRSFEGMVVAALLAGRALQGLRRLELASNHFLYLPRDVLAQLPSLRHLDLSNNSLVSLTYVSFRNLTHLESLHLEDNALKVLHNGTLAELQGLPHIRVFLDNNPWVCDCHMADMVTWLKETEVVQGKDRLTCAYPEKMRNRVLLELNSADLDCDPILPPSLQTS
Put plainly: ELISA, coated human TPBG-hFc 1.0 ug/mL; control IgG at 0.2 nM.

Assay [3] concerns the target human TPBG protein, full-length, on the cell surface (human) (UniProt Q13641). The assay can be described thus: FACS, HEK293 clone 293F-hTPBG 4B9. Background: A flow cytometer gives signals particle by particle.
Assay [4] has the same target. Put plainly: FACS, HEK293 clone 293F-hTPBG 5G8.
Assay [5] addresses T1, human TPBG-hFc protein. Put plainly: ELISA, coated human TPBG-hFc 1.0 ug/mL; control IgG at 20 nM. On the technique in general: An ELISA detects its analyte on a solid surface through an enzyme-linked reagent.
Assay [6] deals with human TPBG protein, full-length, on the cell surface (human) (UniProt Q13641). The assay can be described thus: FACS, HEK293 clone 293F-hTPBG 5E5.
Assay [7] has the same target. Put plainly: FACS, HEK293 clone 293F-hTPBG 5A11.
Assay [8] has the same target. The assay can be described thus: FACS, HEK293 clone 293F-hTPBG 4C5.
Assay [9] has the same target. The assay can be described thus: FACS, HEK293 clone 293F-hTPBG 5H6.
Assay [10] has the same target. Put plainly: FACS, HEK293 clone 293F-hTPBG 4E1.
The target is the same in assay [11]. Put plainly: FACS, CHOk1-hTPBG 3A2F1 cells.
The target of assay [12] is T1, human TPBG-hFc protein. The assay can be described thus: ELISA, coated human TPBG-hFc 1.0 ug/mL; control IgG at 0.002 nM.
The target in assay [13] is T1, human TPBG-hFc protein. Put plainly: ELISA, coated human TPBG-hFc 1.0 ug/mL; control IgG at 0.02 nM.
Assay [14] has as its target human TPBG protein, full-length, on the cell surface (human) (UniProt Q13641). Put plainly: FACS, HEK293 clone 293F-hTPBG 5D4.
Assay [15] deals with T1, human TPBG-hFc protein. The assay can be described thus: ELISA, coated human TPBG-hFc 1.0 ug/mL; control IgG at 0.0002 nM.
Assay [16] has as its target human TPBG protein, full-length, on the cell surface (human) (UniProt Q13641). The assay can be described thus: FACS, HEK293 clone 293F-hTPBG 4G1.
Assay [17] has the same target. Put plainly: FACS, HEK293 clone 293F-hTPBG 5C12.
Assay [18] shares this target. Put plainly: FACS, HEK293 clone 293F-hTPBG 4C3.
The target of assay [19] is cynomolgus TPBG protein, full-length, on the cell surface (cynomolgus) (UniProt Q4R8Y9). The assay can be described thus: FACS, CHOk1-cTPBG 3F13G4 cells.
Assay [20] addresses human TPBG protein, full-length, on the cell surface (human) (UniProt Q13641). The assay can be described thus: FACS, HEK293 clone 293F-hTPBG 5E6.
The target is the same in assay [21]. Put plainly: FACS, HEK293 clone 293F-hTPBG 4E1 (NO 8).
The target in assay [22] is T1, human TPBG-hFc protein. The assay can be described thus: ELISA, coated human TPBG-hFc 1.0 ug/mL; control IgG at 200 nM.
Assay [23] addresses human TPBG protein, full-length, on the cell surface (human) (UniProt Q13641). Put plainly: FACS, HEK293 clone 293F-hTPBG 5G11.
For assay [24], the target named is mouse TPBG protein, full-length, on the cell surface (mouse) (UniProt Q9Z0L0). The assay can be described thus: FACS, CHOk1-mTPBG 3A3 cells.
For assay [25], the target named is human TPBG protein, full-length, on the cell surface (human) (UniProt Q13641). Put plainly: FACS, HEK293 clone 293F-hTPBG 4H12.
Assay [26] has the same target. Put plainly: FACS, HEK293 clone 293F-hTPBG 5A9.
The target in assay [27] is T1, human TPBG-hFc protein. Put plainly: ELISA, coated human TPBG-hFc 1.0 ug/mL; control IgG at 2 nM.
Assay [28] addresses human TPBG protein, full-length, on the cell surface (human) (UniProt Q13641). Put plainly: FACS, HEK293 clone 293F-hTPBG 4F9.
The target is the same in assay [29]. Put plainly: FACS, HEK293 clone 293F-hTPBG 4A9.
Assay [30] shares this target. The assay can be described thus: FACS, HEK293 clone 293F-hTPBG 4G6.
Assay [31] addresses T2, cynomolgus TPBG protein, full-length, on the cell surface (cynomolgus, UniProt Q4R8Y9 35-420).
T2 construct: whole, on cells; also called cTPBG; CHOk1-cTPBG
T2 sequence (looked up): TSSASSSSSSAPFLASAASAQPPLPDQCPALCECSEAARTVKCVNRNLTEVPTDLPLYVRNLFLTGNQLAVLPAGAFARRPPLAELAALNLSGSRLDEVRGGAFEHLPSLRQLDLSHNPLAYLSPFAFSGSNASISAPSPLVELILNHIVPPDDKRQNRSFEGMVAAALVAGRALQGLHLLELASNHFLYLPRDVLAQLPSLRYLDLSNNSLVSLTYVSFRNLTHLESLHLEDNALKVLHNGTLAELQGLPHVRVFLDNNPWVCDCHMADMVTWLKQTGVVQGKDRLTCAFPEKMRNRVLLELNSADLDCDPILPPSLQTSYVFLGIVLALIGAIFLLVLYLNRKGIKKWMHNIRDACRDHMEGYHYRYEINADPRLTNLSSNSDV
The assay can be described thus: FACS on CHOk1-cTPBG cells. An excerpt: (§1) The stable cell lines CHOk1-hTPBG, CHOk1-cTPBG, CHOk1-mTPBG (i.e. the CHOk1-hTPBG 3A2F1, CHOk1-cTPBG 3F13G4 and CHOk1-mTPBG 3A3 shown in Table 6) and CHO-k1 cells were expanded to a 90% of confluency in T-75 cell culture flasks, and the culture medium were removed. Cells were then rinsed twice with HBSS buffer (Hanks Balanced Salt Solution, purchased from Invitrogen) and […] with enzyme-free cell dissociation buffer (Versene solution was purchased from Life technology) and harvested. Harvested cells were rinsed with HBSS buffer twice and counted before diluting with HBSS buffer to 2×10⁶ cells/mL, and 10% goat serum blocking buffer was then added, wherein the percentage is the mass percentage. Cells were incubated on ice for 30 min, and then washed twice with HBSS buffer by centrifugation. […] The plate was washed with the FACS buffer twice by centrifugation, and 100 μL per well of fluorescence (Alexa 488) labeled secondary antibody (purchased from Invitrogen) was then added and incubated on ice for 1 h. […] The results were measured and analyzed by FACS (FACS Calibur, purchased from BD). The data was analyzed by software (CellQuest) to obtain the mean fluorescence intensity (MFI) of the cells, follow by calculating EC50 value by software (GraphPad Prism) analysis and data fitting.

Assay [32] concerns the target T3, human TPBG protein, full-length, on the cell surface (human, UniProt Q13641 32-420).
T3 construct: whole, on cells; Transfected HEK293 (293F-hTPBG clones) and CHO-k1 (CHOk1-hTPBG 3A2F1) cells; also used here for endogenous TPBG on the TPBG-positive tumour lines NCI-H1568, NCI-H1975 and MDA-MB-468 in the killing assays; also called hTPBG; 5T4
T3 sequence (looked up): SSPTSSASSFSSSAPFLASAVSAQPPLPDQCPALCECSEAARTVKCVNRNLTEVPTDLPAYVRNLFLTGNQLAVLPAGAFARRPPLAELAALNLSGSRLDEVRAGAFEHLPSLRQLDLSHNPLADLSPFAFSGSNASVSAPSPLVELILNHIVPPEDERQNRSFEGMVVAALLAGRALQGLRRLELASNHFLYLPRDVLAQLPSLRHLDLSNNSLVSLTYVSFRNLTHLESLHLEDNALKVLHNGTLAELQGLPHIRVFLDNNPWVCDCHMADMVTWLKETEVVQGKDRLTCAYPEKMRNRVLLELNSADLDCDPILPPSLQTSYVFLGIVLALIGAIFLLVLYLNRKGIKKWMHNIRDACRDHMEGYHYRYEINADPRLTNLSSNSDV
The assay can be described thus: FACS on CHOk1-hTPBG cells.
From the text: as §1

Assay [33] has as its target T4, mouse TPBG protein, full-length, on the cell surface (mouse, UniProt Q9Z0L0 32-426).
T4 construct: whole, on cells; also called mTPBG; CHOk1-mTPBG
T4 sequence (looked up): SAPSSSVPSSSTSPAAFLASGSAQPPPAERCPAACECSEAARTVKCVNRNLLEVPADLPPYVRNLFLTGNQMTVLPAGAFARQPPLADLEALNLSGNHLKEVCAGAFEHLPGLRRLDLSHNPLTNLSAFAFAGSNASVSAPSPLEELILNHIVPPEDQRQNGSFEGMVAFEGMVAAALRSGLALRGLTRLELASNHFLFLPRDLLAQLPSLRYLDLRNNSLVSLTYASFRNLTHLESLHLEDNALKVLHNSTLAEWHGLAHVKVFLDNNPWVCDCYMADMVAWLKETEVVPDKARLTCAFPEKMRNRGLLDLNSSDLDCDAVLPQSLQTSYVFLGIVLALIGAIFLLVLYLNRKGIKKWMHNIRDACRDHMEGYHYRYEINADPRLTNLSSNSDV
Put plainly: FACS on CHOk1-mTPBG cells.
From the text: as §1

For the molecule mouse IgG (isotype control) (antibody), the Cellular MFI in [1] came to 3.1 MFI; in assay [3], 6.3 MFI; in [4], 6 MFI; in [6], 5.6 MFI; in [7], 4.6 MFI; in assay [8] it was 5.6 MFI. In addition, the Cellular MFI in assay [9] stood at 3 MFI; in assay [10] it was 5.2 MFI; in assay [11] it was 3.24 MFI; in [14], 3 MFI; in [16], 4 MFI; in [17] it was 3.7 MFI. The Cellular MFI in assay [18] is 3.2 MFI; in assay [19] it was 2.66 MFI; in assay [20], 2.6 MFI; in assay [21], 4.8 MFI; in assay [23], 4.1 MFI; in [24], 2.38 MFI. In addition, the Cellular MFI in [25] is 4 MFI; in [26], 5 MFI; in assay [28], 3.9 MFI; in assay [29], 6.3 MFI; in assay [30], 3.1 MFI. The OD450 nm amounted to 0.11 OD450 nm in assay [2]; 0.11 OD450 nm in [5]; 0.1 OD450 nm in assay [12]; 0.1 OD450 nm in assay [13]; 0.11 OD450 nm in assay [15]; 0.24 OD450 nm in [22]. For the same molecule, in [27], the OD450 nm was determined as 0.1 OD450 nm.

B1: mouse anti-TPBG monoclonal antibody 12B12C7C3 (antibody, V domains shown)
VH: DVQLVESGGGLVQPGGSRKLSCAASGFTFSNFGMHWVRQAPEKGLEWVAYISSGSTSFYYADTVKGRFTISRDNPKNTLFLQMTSLRSEDTAMYYCSRTNSLLRGFFDAWGAGTTVTVSS
VL: DIVLTQSPASLAVSLGQRATISCRASQSVSSSSYTYLHWYQQKPGQPPKLLIKSASNLESGVPARFSGTGSGTDFTLNIHPVEEEDTATYYCQHSWEIPLTFGAGTKLELK
notes: Mouse antibody purified from hybridoma supernatant; also called 12B12C7C3 (12B12 for short)
As a reminder, the EC50 is the concentration that produces a half-maximal response. In the case of B1, the EC50 in assay [31] amounted to 0.59 nM; in assay [32], 0.65 nM. For the same molecule, the binding result in [33] was “no binding”.

B2: mouse anti-TPBG monoclonal antibody 28D4E6A9 (antibody, V domains shown)
VH: DVQLVESGGGLVRPGGSLKLSCAASGFTFSNYVMSWARQSPEKRLEWVAEISTGGSHTYYSDTVTGRFTISRDNAKKALYLEMSSLRSEDTAIYYCIMFYYGSSYSMDYWGQGTSVTVSS
VL: DIQMTQSTSSLSASLGDRITISCRASQDIRNYLNWYQQKPDGTVKLLIYHTSRLHSGVPSRFSGSGSGTDYSLTISNLEQEDIATYFCQQGDTLPLTFGAGTRLELK
notes: Mouse antibody purified from hybridoma supernatant; also called 28D4E6A9 (28D4 for short)
Turning to B2, the values for the EC50 in assay [31] and in assay [32] were 0.25 nM and 0.63 nM, respectively. The binding result in [33] is listed as “no binding”.
